Consider 1 molecule from patent US20220153854A1 (Ablynx, published 2022).

The term Kd denotes the free concentration of one partner at which half of the binding sites on the other are occupied at equilibrium, for simple one-to-one binding.

Test [1] deals with T1, human OX40L (human, UniProt P23510 51-183).
T1 construct: Protein in solution or immobilised (SPR, Gyrolab); construct not described; also called huOX40L; hOX40L
T1 sequence (looked up): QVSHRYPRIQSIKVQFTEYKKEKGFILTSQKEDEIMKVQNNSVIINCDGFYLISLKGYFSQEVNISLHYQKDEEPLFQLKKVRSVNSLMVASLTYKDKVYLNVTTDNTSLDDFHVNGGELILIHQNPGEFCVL
Put plainly: SPR.

The target of test [2] is T2, cyno OX40L (cynomolgus monkey, UniProt G7NVH7 51-183).
T2 construct: also called cyOX40L; cynomolgus monkey OX40L
T2 sequence: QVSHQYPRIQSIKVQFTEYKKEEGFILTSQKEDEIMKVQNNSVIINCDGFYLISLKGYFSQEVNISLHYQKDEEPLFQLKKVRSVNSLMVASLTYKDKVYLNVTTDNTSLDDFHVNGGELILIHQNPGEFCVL
The test is described as follows: SPR. A general note: In SPR one partner is held on a chip, and binding of the other changes the refractive index at the surface.

In test [3] the target is T3, membrane bound human OX40L on CHO-KI cells (human, UniProt P23510 1-183).
T3 sequence (looked up): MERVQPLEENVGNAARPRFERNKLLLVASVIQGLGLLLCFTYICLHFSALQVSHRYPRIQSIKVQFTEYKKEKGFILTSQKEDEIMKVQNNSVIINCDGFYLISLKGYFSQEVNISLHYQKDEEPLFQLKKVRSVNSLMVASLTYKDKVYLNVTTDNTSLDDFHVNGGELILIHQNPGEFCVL
Put plainly: cell-based or functional assay.

Test [4] addresses T4, membrane bound cyno OX40L on CHO-KI cells (cynomolgus monkey, UniProt G7NVH7 1-183).
T4 sequence: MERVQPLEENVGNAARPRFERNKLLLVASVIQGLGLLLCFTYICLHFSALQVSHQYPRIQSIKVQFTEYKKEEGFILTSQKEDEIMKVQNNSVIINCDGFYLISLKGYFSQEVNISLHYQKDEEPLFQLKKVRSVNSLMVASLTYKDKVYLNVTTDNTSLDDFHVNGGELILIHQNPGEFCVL
The test is described as follows: cell-based or functional assay.

The target in test [5] is T1, human OX40L. Put plainly: SPR KD against parental F027300042 (15B07).
The target in test [6] is T2, cyno OX40L. The test is described as follows: SPR KD against parental F027300042 (15B07).

B1: F027301552 (15B07AM) (VHH)
VHH: DVQLVESGGGVVQPGGSLRLSCAASRSIGRYDRMGWYRHRPGEPRELVATITGGSSINYGDSVKGRFTISIDNSKNTVYLQMNSLRPEDTALYYCNFNKYQISRDTWGQGTLVTVSS
Regarding B1, the Kd in test [1] worked out at 0.0853 nM; in test [2], 0.108 nM. Besides, in test [3], the “IC50 (nM) PBMC assay human OX40L” value came to 1.78 nM. Moreover, the “IC50 (nM) PBMC assay cyno OX40L” value in test [4] came to 7.58 nM. For the same molecule, the “Fold improved affinity vs parental” value in test [5] was 53 fold; in test [6], 92 fold.
